Data published in PMC10512945.

Molecular target: N-terminally GST-tagged human GBF1 (containing the Y828A mutation that confers BFA resistance) (human)
Assay: negative staining electron microscopy; purified GST-GBF1 on glow-discharged carbon grids, washed with 20 mM Bis-Tris pH 7.0, 50 mM NaCl, 1 mM DTT, stained with 1% uranyl formate; 2D class averages from 81,522 particles, compared with AlphaFold-predicted monomers

stoichiometry N: 2
Substance: N-terminally GST-tagged human GBF1 (containing the Y828A mutation that confers BFA resistance) (natural protein)
